Assay results published in patent publication US20170204402A1.

Key:
Experiment in all cases: cell-based or functional assay
[1] = target: ACM335 (from plasmid pCm-ACM335, no fused moiety) (Bordetella pertussis) (UniProt J7QLC0)
[2] = target: ACM335-GFP hybrid protein (from plasmid pCm-ACM335-GFP) (Bordetella pertussis)
[3] = target: AC (wild-type, from plasmid pCm-AC, no fused moiety) (Bordetella pertussis) (UniProt J7QLC0)
[4] = target: AC-GFP hybrid protein (wild-type AC fused at its C-terminus to GFP, from plasmid pCm-AC-GFP) (Bordetella pertussis) (UniProt J7QLC0)
[5] = target: ACM335-FKBP hybrid protein (from plasmid pCm-ACM335-FKBP) (Bordetella pertussis) (UniProt P62942)
[6] = target: ACM247-GFP hybrid protein (from plasmid pCm-ACM247-GFP) (Bordetella pertussis) (UniProt J7QLC0)

Substance	β-galactosidase (relative units) [1]	β-galactosidase (relative units) [2]	β-galactosidase (relative units) [3]	β-galactosidase (relative units) [4]	β-galactosidase (relative units) [5]	β gal; CaM from pTr-CaM [2]	cAMP; CaM from pTr-CaM (nmol/mg dry weigth) [4]	β gal; CaM from pTr-CaM [4]	cAMP; CaM from pTr-CaM (nmol/mg dry weigth) [6]	β gal; CaM from pTr-CaM [6]
CaMVU8 (VU-8 calmodulin, from plasmid pCaMVU8) (from UniProt P0DP23 2-149)	7	6	6	5	6	–	–	–	–	–
CaM (from plasmid pTr-CaM, not fused to a moiety of interest) (from UniProt P0DP23 2-149)	–	–	–	–	–	80 Rel. Units	> 250	106 Rel. Units	< 0.1	1 Rel. Units
